In the nanobody polyreactivity screen of Harvey et al. (2022):

Experiment: yeast display, Sf9 membrane polyspecificity reagent, FACS + sequencing; frameworks hold sequencing errors
Summary of the method: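 Synthetic nanobody libraries on Saccharomyces cerevisiae BJ5465 were galactose-induced for 36–48 hours, stained 1 hour at 4 °C with 10% biotinylated, detergent-solubilized Sf9 membrane reagent and enriched on streptavidin microbeads. FACS then separated cells into low and high (top ~1%) gates by anti-HA (expression) and streptavidin (reagent binding) fluorescence. Genes were colony-PCR amplified, MiSeq 2 × 250 sequenced and CDR-length filtered. A clone's polyreactivity label is that of its gate of origin.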

Sequence | polyreactivity (PSR sort gate)
QVQLVESGGGLVQAGGSLRLSCAASGRTFYRNAMGWYRQAPGKEREFVASIDWSGGSTYYADSVKGRFTISRDNAKNTVYLQMNSLKPEDTAVYYCAAELDYFPGYDYWGQGTQVTVSS | low polyreactivity
QVQLVDSGGGLVQEGGSLRISCAASGFTFPRNAMGWYIQAPGKERELVAAINSGGGTNYADSVKGRFTISRDNAKNTVYLQMNSLKPEDTAVYYCAKDHGSFEMDYWGLGTQVTVSS | low polyreactivity
QVQLVESGGGLVQAGGSLRLSCAASGRTFPVNAMGWYRQAPAKQSELVATISWSGGSTYYADSVKGRFTISRDNAKNTVYLQMNSLKPEDTAVYYCAALGRHYRYDYWGQGTQVTVSS | low polyreactivity
QVQLVESGGGLVQAGGSLRLSCAASGFTIDTYAMGWYRQAPGKERELVAGISWSGGSTYYADSVKGRFTISRDNAKNTVYLQMNSLKPEDTAVYYCARTARRRYQPYEYWGQGTQVTVSS | low polyreactivity
QVQLVESGGGLVQAGGSLRLSCAASGFTIRRYAMGWYRQAPGKERELVAAITRSAGSTYYADSVKGRFTISRDNAKNTVYLQMNSLKPEDTAVYYCAARWTRWGADSGYYWGQGTQVTVSS | high polyreactivity
QVQLVESWGGLVQAGGSLRLSCAASGIIFVSNAMGWYRQATGKERELVATINWSDDSTYYADSVKGRFTISRDNAKNTVYLQMNSLKPEDTAVYYCAADDYAVDYSYYYNDEYDYWGQGTQVTVSS | low polyreactivity
QVQLVESRGGLVQAGGSLSLSCAASGRIFYIYDMGWYRQAPGKERELVAAISTSGGSTFYADSVKGRFTISRDNAKNTVYLQMNSLKPEDTAVYYCAARFRYYGSEYDYWGQGTQVSVSS | low polyreactivity
QVQLVESGGGLVQAGGSLRLSCAASGRTFDFYAMGWYRQAPGKERELVAGITSGDSTHYADSVKGRFTISRDNAKNTVYLQMNSLKPEDTAVYYCAADITWYDYAGSHIVEHDYWGQGTQVTVSS | low polyreactivity
QVQLVESGGGLVQAGGSLRLSCAASGSIFPGYAMGWYRQAPGKERELVATITYSDGSTYYADSVKGRFTISRDNAKNTVSLQMNSLKPEDTAVYYCNAASRGAGTSIWSWYDHWGQGTQVTVSS | low polyreactivity
QVQLVESGGGLVQAGGSLRLSCAASGLTFVTNAMGWYRQAPGKERELVAGISWSDGSTYYADSVKGRFTISRDNAKNTVYLQMNSVKPEDSAVYYCNAGVDLHYGYITYGVYGYDYWGQGTQVTVSS | low polyreactivity
QVQLVESGGGLVQAGGSLRLSCAASGFTFSNYAMGWYRQAPGKERELVAAISRSGGSTYYADSVKGRFTISRDNAKNTVYLKMNSLKPEDTAVYYCNAVRYHARSGWSDYWGQGTQVTVSS | high polyreactivity
QVQLVESGGGLVQAGGSLRLSCAASGSTFRWYAMGWYRQAPGKERELVAAIRSSGGSTYYADSVKGRFTISRDNAKNTVYLQMNSLKPEDTAVYYCNTYPARNFYSVAGGYWGQGTQVTVSS | low polyreactivity
QVQLVESGGGLVQAGGSLRLSCAASGSTFRTNGMGWYRQAPGKERELVAAITRGTSTNYADSVKGRFTISRDNAKNTVYLQMNSLKPEDTAVYYCAADVTGGRKYDYWGQGTQVTVSS | low polyreactivity
QVHLVESGGGLVQAGGSLRLSCAAYGSIFRVYAMGWYRPAPGKERELVAAIDSGGSTYYADSVKGRFTISRDNAKNTVYLQMNSLKPEDTAVYYCNADRRPGGDYWGQGTQVTVSS | low polyreactivity
QVQLVESGGGLVQAGGSLRLSCAASGFIFGYNAMGWYRQSPGKERELVAAISTRGGSTYYADSVKGRFTISRDNAKNTVYLQMNSLKPEDTAVYYCNKVTRVPFDSWGQGTQVTVSS | high polyreactivity
QVQLVESGGGLVQAGGSLRLSCAASGFIFSYLYAMGWYRQAPGKERELVAAITYNGGSTYYADSVKGRFTISRDIAKNTVYLQMNSLKPEDTAVYYCAARKRYRANSYWEMAYWGQGTQVTVSS | high polyreactivity

Sequence | polyreactivity (PSR sort gate)
QVQLVESGGGFVQAGGSLRLSCVPSGRTYEPYAMGWYRQAPGKERELVAAIRWSGDRTYYADSVKGRFTISRDFAKITVYLHMISLKPEDTAVYYCAADYRARRWGMDYWGQGTQVTVSS | high polyreactivity
QVQLVESGGGLVQAGGSLRLSCAASGRIFVKYAMGWYRQAPGKERELVAAITNSGGRTYYAASVKGRFTISRDNAKNTVYLQMNSLKPEDTAVYYCAALYHASTRQMDYWGQGTQVTVSS | high polyreactivity
QVQLVESGGGLVQAGGSLRLSCAASGFTFVGNAMGWYRQAAGKEWELVADITGSDGSTYYADSVKGRFTISRDNAKNTVYLQINSLKPEDTAVYYCAASPPYKLVWWRRMDYWGQGTQVTVSS | low polyreactivity
QVQLVESGGGLVQAGGSLRLSCAASGSIIKPYAMGWYRQAPGKERDLVAAIRSSGGRTNYADSVKGRFTISRDNAKNTVYLQMNSLKPEDTAVYYCAALVRVTGTYYTKYDFWGQGNQVTVSS | high polyreactivity
QVQLVESGGGLVQAGGSLRLSCAASGSTFGVNTMGWYRQAPGKERELVAAITSRGGSTYYADSVKGRFTISRDNAKNTVYLQMNSLKPEDTAVYYCAAEASYYRIRRYYWGQGTQVTVSS | high polyreactivity
QVQLVESGGGLVQAGGSLSLSCAASGSIFPHYAMGWYRQAPGKERELVAAISRGGSTNYADSVKGRFTISRDNAKNTVYLQMISLKPEDTAVYYCNARVYTKDYKRYDYWGQGTQVTVSS | high polyreactivity
QVQLEESGGGLVQAGGSHRLSCAASGFIFDRNAMGWYRQAPGKERELVAAITRSGGNTYYADSVKGRFTISRDNAKNTVYLQMNSLKPEDTAVYYCAKDVIQWSVSASYRFGYWGQGTQVTVSS | high polyreactivity
QVQLVESGGGLVQAGGSLRLSCAASGRTFGPYARGWYIQAPGKERELVAAISWIGTSTYYADSVKGRFTISRDNAKNTVYLQMNSLKPEDTAVYYCAALEKNYTTKFYYWGQVTQVTVSS | high polyreactivity
QVQLVESGGGVVQAGGSLRLSCAASGRTIWSNAMGWYRQAPGKERELVAAISRTGGRTYYADSVKGRFTISRDNAKNTVYLQMNSLKREDTAVYYCATGSGVYDYWGQGTQLTVSS | high polyreactivity
QVQLVESGGGLVQAGGSLRLRCAASGSTFAWYAMGWYRQAPGKESELVAAITQNGGRTYYADSVKGRFTISRDNAKNTVYLQMNSLKPEDTAVYYCANAFIQPGYKYDSWGQVTQVTVSS | high polyreactivity
QVQLVESGGGLVQAGGSLRLSCAASGRIFSVYAMGWYRQAPGKERELVAGITSSGGSTYYADSVKGRFTISRDNAKNTVYLQMNSLKPEDTAVYYCNAYSQYWLGNNYWGQGTQVTVSS | high polyreactivity
QVQLVESGGGLVQAGGSLRLSCAASGSIFGRYVMGWYRQAPGKERELVATISSGGSTYYADSVKGRFTISRDNAKNTVYLQMNSLKPEDTAVYYCAASYSRFVDWIGDPGYDYWGQGTQVTVSS | low polyreactivity
QVQLVESGGGLVQAGGSLRLSCAASGRTFYHNAMGWYRPAPGKEWELVASIRWSGGSTYADSVKGRFTISRDNAKNTVYLQMNSLKPEDTAGYYCAKVGKSLYPVDYYSWGQGTQVTVSS | high polyreactivity
QVQLVESGGGLVQAGGSLRLSCAASGYTFYPYAMGWYRQAPGKERELVAAISGGASTYYADSVKGRFTISRDNAKNTVYLHMNSLKPEDTAVYYCAVSVYTYVVWYVAATYDYWGQGTQVTVSS | low polyreactivity
QDQLVESCGALVQAGGSLRLSCAASGSTFNFYAMGWYRQAPGKERELVAAITWRGGSTYYADSVKGRFTISRDFAKNTVYLQMNSLKPEDSAVYYCAAARGKDGYWGQGTQVNVSS | high polyreactivity
QVQLVESGGGLVQAGGSLRLSCAASGNTFVGYTMGWYRQAPGKEWELVAAISWNGGTTYYADSVKGRFTISRDNAKNTVYLQMNSLKPEDTAVYYCNTRWYTRRFDYWGQGTQVTVSS | high polyreactivity
